Values quoted from earlier work, collected in publication PMC13681993.

Target: GAB1 pY627 (Homo sapiens) (UniProt Q13480)
Assay: fluorescence polarization

- Kd: 0.287 µM
Substance: PTPN11 N-SH2 (from UniProt Q06124)
